From the nanobody polyreactivity screen of Harvey et al. (2022) come the findings set out here.

The nature of the series: yeast display, Sf9 membrane polyspecificity reagent, FACS + sequencing; frameworks hold sequencing errors. Put shortly:
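Nanobodies from a synthetic yeast display library (Saccharomyces cerevisiae BJ5465), induced 36–48 hours with galactose, were stained 1 hour at 4 °C with 10% biotinylated, detergent-solubilized Sf9 membrane reagent, enriched on streptavidin microbeads, then FACS-sorted. Anti-HA (expression) and streptavidin (reagent binding) fluorescence set low and high (top ~1%) gates. Polyreactivity labels come from the gate of origin. Genes were colony-PCR amplified, MiSeq 2 × 250 sequenced and filtered by CDR length.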
Consider “QVQLVESGGGLVQAGGSLRLSCAASGSTFRFNAMGWYRQAPGKERELVAAITGIGGITYYADSVKGRFTISRDNAKNTVYFQMNSLKPEDTAVYYCNAAGGYKPYLQDVDSRYDYWGQGTQVTVSS”, for which the “polyreactivity (PSR sort gate)” value is reported as “high polyreactivity”. Turning to “QVQLVESGGGLVQAGCSRRFSCAASGFTFYKNAMGWYRQAPGKERELVAAITSSGGTTYYADSVKGRFTISRDNAKNTVYLQMNSLNPEDTAVYYCAARASRPRFGYWGQGTQVTVSS”, the “polyreactivity (PSR sort gate)” value was “high polyreactivity”. Turning to “QVQLVESGGGLVQAGGSLRLSCAASGFTIRRYAMGWYRQAPGKESELVAAITTGGSTYYADSVKGRFTISRDNAKNTVYLQMNSLKPEDTAVYYCATDTYPYPLYYSPGAYGYWGQGTQVTVSS”, the “polyreactivity (PSR sort gate)” value is “high polyreactivity”.

On to “QVQLVESGGGLVQAGGSLRVSCAASGFTFGSYAMGWYRQSPGKERELVAVITRSGRTNYADSVKGRFTISRDNAKNTVYLQMNSLKPEDTAVYYCNADDVDDEVSPDLTEMDYWGQGTQVTVSS”, for which the “polyreactivity (PSR sort gate)” value is given as “low polyreactivity”.

Regarding “QVQLVESGGGLVQAGGSLRLSCAASGSTFFHNAMGWYRQAPGKEREWVAAINWNGGSTYYADSVKGRFTISRDNAKNTVYLQMNSLKPEDTAVYYCAADIYTYLGAYYIGYYWGQGTQVTVSS”, the “polyreactivity (PSR sort gate)” value is on record as “low polyreactivity”.

For the sequence “QVHLVESGGGLVQAGGSLRLSCAASGRTFGINAMGWYRQAPGKERELDAVISFGDGGTYYADSVKGRFTISRDNAKNTVYLQMKSLKPEDTAVYYCATDYQSTSVWGGHFVINPYDYWGQGTQVTVSS”, the “polyreactivity (PSR sort gate)” value is reported as “low polyreactivity”.

With “QVQLVESGGGLVQAGGSLRLSCAASGVIFTFYAMGWYRQAPGKEREFVASIDWGDGSTYYADSVKGRFTISRDNAKNTVYLQMNSLKPEDTAVYYCAHDSDGYVCDTEYDYWGQGTQVTVSS”, the “polyreactivity (PSR sort gate)” value is given as “low polyreactivity”.

Take “QVQLVESGGGLVQAGGSLRLSCAASGYTFFTNAMGWYRQAPGKEREFVAAISKSGGNTYYADSVKGRFTISRDNAKNTVYLQMNSRKPEDTAVYYCAAQHRGYAGPRPYYYWGQGTQVTVSS”: the “polyreactivity (PSR sort gate)” value is reported as “high polyreactivity”.

On to “QVQLVESGGGLVQAGGSLRLSCAASGSIFYTNAMGWYRQAPGKERELVASIRTGGSTNYADSVKGRFTISRDNAKNTVYLQMNSLKPEDTAVYYCNADDPDYHGSIDDLDYDYWGQGTQVTVSS”, for which the “polyreactivity (PSR sort gate)” value is “low polyreactivity”.

With “QVQLVESGGGLVQAGGSLRLSCAASGNTFTYYAMGWYRQAPGKERELVAAINIDVASTYYADSVKGRFTISRDNAKNTVYLQMNSLKPEDTAVYYCAAEVGVYPVYWYDYWGQGTQVTVSS”, the “polyreactivity (PSR sort gate)” value is listed as “low polyreactivity”. Regarding “QVQLVESGGGLVPAGGSLRLSCAASGITIGRNTMGWYRQAPGKERELVAAIDSGGNTYADSVKGRFTISRDNAKNTVYLQMNSLKPEDTAVYYCAVDGGEFSSYGYWGQGTQVTVSP”, the “polyreactivity (PSR sort gate)” value is listed as “low polyreactivity”. The same measure for “QVQLVESGGGLVKAGGSLRLSCAASGRTFWIYAMGWYRPAPGKERELRAAISQSSSNTYYADSVKGRVTLSRDNAKNTVYLQMNSLKPEDTAVYYCNAVVLRYQGSWLEYWGQGTQVTVSS”: “low polyreactivity”; for “QVQLVESGGGLVQAGGSLRLSCAASGYTFLPYALGWYRQAPGKERELVAAINWGGGSTYYADSVKGRFTISRDNAKNTVYLQMNSLKPEDTAVYYCNAKRPFGGLDYWGQGSQVTVSS”: “low polyreactivity”. “QVQLVESGGGLVQAGGSLSLSCAASGSIFTHNAMGWYRQAPGKERELVAAISSGGSTNYADSVKGRFTISRDNAKNTVYLQMNSLKPEDTAVYYCAAGTQWYSQVYIYYYGGQGTQVTVSS”: the “polyreactivity (PSR sort gate)” value is “low polyreactivity”. For the sequence “QVQLVESGGRLVQAGGSLRLSCAASGSIIAWYVLGWYRRAAGKERELVAGIDTSGGSTFYADSVMGRFTISRDIAKNTVYLQMNSLKTEATAVYYCAADTWYRGPWEFDYWGQGTQVTVSS”, the “polyreactivity (PSR sort gate)” value is given as “low polyreactivity”. In the case of “QVQLVESGGGLVQAGGSLRLSCAASGIIFAQYTMGWYRQAPGKERELVAAINRNGGSTYYADSVKGRFTISRDNAKNSVYLQMNSLKPEDTAVYYCNADALGFRYDYWGQGTQVTVSS” it was “low polyreactivity”; in that of “QVQLVESGGGLVQAGGSLRLSCAASGITFARYTMGWYRQAPGKERELVAAITWSGGRTYYADSVKGRFTISRDNAKNTVYLQMNSLKPEDTAVYYCNVDLGRYGTSSGASVGYGDYDYWGQGTQVTVSS”, “high polyreactivity”. The same measure for “QVQLVESGGGLVQAGGSLRLSCAASGSIFNKYAMGWYRQAPGKERELVAAISVSGTRTYYADTVKGRFTISRDNAKNTVYLQMNSLKPEDTAVYYCATKFFRTAYESWGQGTQVTVSS”: “high polyreactivity”; for “QVQLVESGGGLVQAGGSLRKSCAASGSIFADKAMGWYRQAPGKERELVATISAPDGSTYYADYVKGRFTISGDNAKNTVYLQMNSLKPEDTAVYYCAASGYYILSWRYDYWGQGTQVTVSS”: “low polyreactivity”; for “QVQLVESGGGLVQAGGSLRLSCAASGLTFLVYAMGWYRQAPGKERELVAAITSIGDSTFYADSVKGRFTISRDNAKNTVYLQMNSLKPEDSAVYYCNADGPAGDIKFTLMDYDYWGQGTQVTVSS”: “low polyreactivity”. As for “QVQLVESGGGLVHAGGSLRLSCAASGFTFGPYAMGWYRQAPRKERELVAAITGSGGITYYADSVKGRFTISRDNAKNTVYLQKNSLKPEDTAVYYCAAEYPYVYGTYSDSYTEYDYWGQGTQVTVSS”, the “polyreactivity (PSR sort gate)” value is “low polyreactivity”.

With “QVQLVESGGGLVQAGGSLRLSCAASGSIFTQYAMGWYREATGKERELVAAITSGGSTYADSVKGRFTISRDNANNTVYLQMNSLKPEDTAVYYCATQYSYRGVTFYYWGQGTQVTVSS”, the “polyreactivity (PSR sort gate)” value is “low polyreactivity”.

For the sequence “QVQLVESGGGLVQAGGSLRLICAASGRIFSGNTMGWYRQAPGKERELVAAISKSGGRTYYADSVKGRFTISRDNAKYTFYLQMNSLKPEDTAVYYCNADYRSHYLYDYWGQGTQVTVSS”, the “polyreactivity (PSR sort gate)” value is given as “low polyreactivity”. As to “QVQLVESGGGLVKAGGSLRLSCAASGSTFWYNAMGCYRQAPRKERELVAAITRGASTNYADSVKGRFTISRDNAKNTVYLQMNCLKPEDTAVYYCAGGPARWKGYYWGQGTQVTVSS”, the “polyreactivity (PSR sort gate)” value is reported as “high polyreactivity”.

In the case of “QVQLVESGGGLVQAVGSLRLSCAASGRTFRTYTMGWYRQAPGKERELVAAISRGGSTNYADSLKGRFTISRDNAKNTVYLQMNSLKPEDTAVYYCNAKASFWSPYDYWGQGTQVTVSS”, the “polyreactivity (PSR sort gate)” value is on record as “high polyreactivity”. As to “QVQLVESGGGLVQAGGSLRLSCAASGGTFYYYAMGWYRQAPGKERELVAAITKNGGSTYYADSVKGRFTISRDNAKNTVYLQMNSLKPEDTAVYYCAASRFGRMDYWGQGTQVTVSS”, the “polyreactivity (PSR sort gate)” value was “high polyreactivity”. For the sequence “QVQLVESGGGLVQAGGSLRLSCAASGFTFTTNAMGWYRQAPGKERELVAAISKRGTRTYYADSVKGRFTISRDNAKNTVYLQMNSLKPEDTAVYYCAAASVAGDKFDYWGQGSQVTVSS”, the “polyreactivity (PSR sort gate)” value is “high polyreactivity”. For the sequence “QVQLVESGGGLVQAGGSLRLSCAASGSIFQRNAMGWYRQAPGKERELVAAISWSGGSTYYADSVKGRFTISRDNAKNSVSLQMNSVKPEDTAVYYCARYYRPYDWGQGTQVTVSS”, the “polyreactivity (PSR sort gate)” value is given as “high polyreactivity”.

Consider “QVQLVESGGGLVQAGGSLRLSCAASGRTFGIYALGWYRQAPGKERELVAAITGRGGSTHYADSVKGRFTISRDNAKNTVYLQMNSLKPEDTAVYYCNAEGVYYDYKYGYYGYDYWGQGTQVTVSS”, for which the “polyreactivity (PSR sort gate)” value was “low polyreactivity”.

For the sequence “QVQLVESGGGLVQAGGSLRLSCAPSGGTFTHNAMGWYRQAPGKEWELVAAISRSGGSTSYADSVKGRFTISRYNAMNTVYLQMNSLKPEDTAVYYCAALISRQRSYSRDYWGQGTQVTVSS”, the “polyreactivity (PSR sort gate)” value is recorded as “high polyreactivity”. Regarding “QVQLVESGGGLVQAGGSLRLSCAASGRIFLYNTMGWYRQAPGKERELVARISWSGGSTKYADSVKGRFTISRDNAKNTVYLQMNSLKPEDTAVYYCNAGYFTEYNSWGQGTQVTVSS”, the “polyreactivity (PSR sort gate)” value is listed as “high polyreactivity”.

On to “QVQLVESGGGLVQAGGSLRLSCAASGRTFLRYAMGWSRQAPGKERELVAAISSRGGRTYYADSVKGRFTISRDNAKNTVYLQMNILKPEDTAVYYCNARYSPRTGRGRHVTYYYWGQGTQVTVSS”, for which the “polyreactivity (PSR sort gate)” value is “high polyreactivity”. As for “QVQLVESGGCLVQAGGSLRLSCAASGRTFDVYAMGWYRQAPGKERELVATIRSDGSTTYADSVKGRFTISRDNAKNTVYLQMNSLKPEDTAVYYCAADFRSGFSSSTTPVQSDWGQGTQVTVSS”, the “polyreactivity (PSR sort gate)” value is “low polyreactivity”. In the case of “QVQLVESGGGLVQAGGSLRLSCAASGIIFYKYAMGWYRQAPGKERELVAAITGRGGSTYYADSVKGRFTISRDNAKNTVYLRMNSLKPEDTAVYFCAASQRSGHPSYDYWGQGTQVTVSS” it was “high polyreactivity”. Regarding “QVQLVESGGGLVQAGGSLRLSCAASGYTLSLNAMGWYRQAPGKEREFVARISGRGGSTYYADSVKGRFTISRDNAKNTVYLQMNSLKPEDTAVYYCAATWWPWGTDNRGMYYWGQGTQVTVSS”, the “polyreactivity (PSR sort gate)” value is “high polyreactivity”. For the sequence “QVQLVESGGGLDQAGGSLSLSCAASGIIFAGNAMGWYRQPPGKERELVAAISSNGGSTYYADSVKGRFTISRDNAKNTVYLQMNSLKPEDTAVYYCAADRVYWGRVQGYYWGQGTQVTVSS”, the “polyreactivity (PSR sort gate)” value is reported as “low polyreactivity”. Take “QVQLVESGGGLLQAGGSLRLSCAASGSIFNKYAMGWYRQATGKEREFVAAITQGGGRTYYADSEKVRFTISRDNAKNTDYLQMNILKPEDTAVYYCNYNFNYPYYRYGYWGQGTQVTVSS”: the “polyreactivity (PSR sort gate)” value is “high polyreactivity”. As for “QVKHVESGGGLVKAGGSLRLSCPAAGRIIDKYAMGWYRQSPGKERELVATITSSGGSTYYADSVKGRFTISRDTAMNNVYLQMNSLKPEDTAVYYCDALDRTGYSRGETRSLYYFWGQGTQVTVSS”, the “polyreactivity (PSR sort gate)” value was “low polyreactivity”. As for “QVQHVESGGGLVQAGGSLRLSCAASGRIFYLNAMGWYREAPGKERELVAAINTSGDSTYYADSVKGRFTISRDNAKNTVYLQMNSLKPVDTAVFYCAAYVIGPDQFIYDYWGQGTQVTVSS”, the “polyreactivity (PSR sort gate)” value was “low polyreactivity”. In the case of “QVQLVESGGGLVQAGGSLRLSCAASGSTFNYYAMGWYRQAPGKERELVAGITWRGRTYYADSVKGRFTISRDNAKNTVYLQMNSLKPEDTAVYYCAARQGTYGYWGQGTQVTVSS”, the “polyreactivity (PSR sort gate)” value was “high polyreactivity”.
